Patent publication US20050164920A1 (Pfizer, published 2005)
Positions of bridges follow the written chain, without caps; N, C: chain ends.

Molecular target: TrkB receptor on rat cerebellar neurons (rat, UniProt Q63604 32-821)
Assay: cell-based or functional assay

Sequence of TrkB receptor on rat cerebellar neurons (Q63604 32-821): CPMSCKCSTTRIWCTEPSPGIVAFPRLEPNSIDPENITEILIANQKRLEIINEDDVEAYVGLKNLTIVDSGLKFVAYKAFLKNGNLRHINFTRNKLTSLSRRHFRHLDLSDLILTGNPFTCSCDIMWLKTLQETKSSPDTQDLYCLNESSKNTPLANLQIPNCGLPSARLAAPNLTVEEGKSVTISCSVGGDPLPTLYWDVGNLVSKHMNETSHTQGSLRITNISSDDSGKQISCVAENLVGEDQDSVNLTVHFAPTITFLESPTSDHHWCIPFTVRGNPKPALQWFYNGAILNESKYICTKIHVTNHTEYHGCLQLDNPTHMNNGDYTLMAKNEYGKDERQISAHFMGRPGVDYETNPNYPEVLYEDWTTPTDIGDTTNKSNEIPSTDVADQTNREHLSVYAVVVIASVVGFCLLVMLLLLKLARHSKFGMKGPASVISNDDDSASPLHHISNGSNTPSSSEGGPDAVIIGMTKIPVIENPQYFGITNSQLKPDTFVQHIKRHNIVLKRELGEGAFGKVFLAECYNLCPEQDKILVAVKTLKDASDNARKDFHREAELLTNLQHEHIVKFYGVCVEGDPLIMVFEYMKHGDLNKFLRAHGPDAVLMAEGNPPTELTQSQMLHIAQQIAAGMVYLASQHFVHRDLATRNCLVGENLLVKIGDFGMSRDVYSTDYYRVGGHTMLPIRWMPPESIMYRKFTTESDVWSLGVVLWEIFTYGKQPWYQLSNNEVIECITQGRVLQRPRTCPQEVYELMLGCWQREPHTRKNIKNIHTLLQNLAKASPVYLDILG

B1: neurotrophin-4 (NT-4/5), recombinant human (ligand)
chain: GVSETAPASRRGELAVCDAVSGWVTDRRTAVDLRGREVEVLGEVPAAGGSPLRQYFFETRCKADNAEEGGPGAGGGGCRGVDRRHWVSECKAKQSYVRALTADAQGRVGWRWIRIDTACVCTLLSRTGRA
neurite outgrowth of rat cerebellar neurons, concentration of maximal response: 1 to 10 ng/mL

B2: N-Ac-…-NH2 (peptide)
peptide: Ac-CSRRGELAASRRGELC-NH2
modifications: disulfide 1-16
SMILES: CC(=O)N[C@H]1CSSC[C@@H](C(N)=O)NC(=O)[C@H](CC(C)C)NC(=O)[C@H](CCC(=O)O)NC(=O)CNC(=O)[C@H](CCCNC(=N)N)NC(=O)[C@H](CCCNC(=N)N)NC(=O)[C@H](CO)NC(=O)[C@H](C)NC(=O)[C@H](C)NC(=O)[C@H](CC(C)C)NC(=O)[C@H](CCC(=O)O)NC(=O)CNC(=O)[C@H](CCCNC(=N)N)NC(=O)[C@H](CCCNC(=N)N)NC(=O)[C@H](CO)NC1=O
EC50 of stimulation of neurite outgrowth: ~300 nM

B3: brain-derived neurotrophic factor (BDNF), recombinant human (ligand)
chain: HSDPARRGELSVCDSISEWVTAADKKTAVDMSGGTVTVLEKVPVSKGQLKQYFYETKCNPMGYTKEGCRGIDKRHWNSQCRTTQSYVRALTMDSKKRIGWRFIRIDTSCVCTLTIKRGR
increase of neurite length against control culture, BDNF at 5 ng/ml: 60 to 70%
neurite outgrowth of rat cerebellar neurons, concentration of maximal response: 1 to 10 ng/mL

B4: N-Ac-CSRRGEC-NH2 (peptide)
peptide: Ac-CSRRGEC-NH2
modifications: disulfide 1-7
SMILES: CC(=O)N[C@H]1CSSC[C@@H](C(N)=O)NC(=O)[C@H](CCC(=O)O)NC(=O)CNC(=O)[C@H](CCCNC(=N)N)NC(=O)[C@H](CCCNC(=N)N)NC(=O)[C@H](CO)NC1=O
inhibition of the BDNF response, fold against the NGF and NT-3 derived peptides: ~5 fold
